Among the data in patent US20180265864, “Genome Engineering Methods Using a Cytosine-Specific CAS9” (Florida State University Research Foundation, Inc., published 2018) are activity values, retold here.

In data set [1] the target is T1, AceCas9 (in E. coli) (Acidothermus cellulolyticus 11B) (UniProt A0LWB3).
T1 sequence: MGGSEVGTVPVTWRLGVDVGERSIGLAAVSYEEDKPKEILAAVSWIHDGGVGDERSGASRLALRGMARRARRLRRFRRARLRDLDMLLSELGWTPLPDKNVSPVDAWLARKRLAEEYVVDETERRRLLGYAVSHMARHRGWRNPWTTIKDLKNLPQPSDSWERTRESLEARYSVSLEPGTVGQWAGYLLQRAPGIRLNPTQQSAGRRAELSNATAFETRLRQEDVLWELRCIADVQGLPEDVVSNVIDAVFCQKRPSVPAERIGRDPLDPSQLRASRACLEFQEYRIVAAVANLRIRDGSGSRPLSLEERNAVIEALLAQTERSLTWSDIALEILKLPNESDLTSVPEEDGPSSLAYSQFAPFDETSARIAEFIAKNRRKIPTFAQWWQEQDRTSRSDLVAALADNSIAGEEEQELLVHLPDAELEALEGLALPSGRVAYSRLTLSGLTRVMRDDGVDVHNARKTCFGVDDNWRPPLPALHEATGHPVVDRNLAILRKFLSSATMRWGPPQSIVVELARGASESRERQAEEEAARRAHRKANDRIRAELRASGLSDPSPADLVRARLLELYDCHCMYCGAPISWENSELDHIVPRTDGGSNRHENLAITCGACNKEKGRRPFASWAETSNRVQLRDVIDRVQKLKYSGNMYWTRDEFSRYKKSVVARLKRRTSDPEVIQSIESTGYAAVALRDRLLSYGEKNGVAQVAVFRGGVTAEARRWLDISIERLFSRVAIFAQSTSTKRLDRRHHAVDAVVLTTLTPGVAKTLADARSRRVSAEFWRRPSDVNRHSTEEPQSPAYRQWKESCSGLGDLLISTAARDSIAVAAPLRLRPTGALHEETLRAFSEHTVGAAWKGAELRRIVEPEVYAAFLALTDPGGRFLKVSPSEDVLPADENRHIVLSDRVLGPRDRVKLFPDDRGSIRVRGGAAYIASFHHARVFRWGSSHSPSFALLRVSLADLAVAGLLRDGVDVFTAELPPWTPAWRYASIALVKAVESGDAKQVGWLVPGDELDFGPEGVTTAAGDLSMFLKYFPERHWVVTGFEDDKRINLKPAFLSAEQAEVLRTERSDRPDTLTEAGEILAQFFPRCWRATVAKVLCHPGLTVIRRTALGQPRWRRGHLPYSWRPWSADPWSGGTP
Description: cell_activity.

The next data set has as its target T2, AceCas9 (Type II-C Cas9) (Acidothermus cellulolyticus 11B, UniProt A0LWB3 A0LWB3:1-1138).
T2 sequence: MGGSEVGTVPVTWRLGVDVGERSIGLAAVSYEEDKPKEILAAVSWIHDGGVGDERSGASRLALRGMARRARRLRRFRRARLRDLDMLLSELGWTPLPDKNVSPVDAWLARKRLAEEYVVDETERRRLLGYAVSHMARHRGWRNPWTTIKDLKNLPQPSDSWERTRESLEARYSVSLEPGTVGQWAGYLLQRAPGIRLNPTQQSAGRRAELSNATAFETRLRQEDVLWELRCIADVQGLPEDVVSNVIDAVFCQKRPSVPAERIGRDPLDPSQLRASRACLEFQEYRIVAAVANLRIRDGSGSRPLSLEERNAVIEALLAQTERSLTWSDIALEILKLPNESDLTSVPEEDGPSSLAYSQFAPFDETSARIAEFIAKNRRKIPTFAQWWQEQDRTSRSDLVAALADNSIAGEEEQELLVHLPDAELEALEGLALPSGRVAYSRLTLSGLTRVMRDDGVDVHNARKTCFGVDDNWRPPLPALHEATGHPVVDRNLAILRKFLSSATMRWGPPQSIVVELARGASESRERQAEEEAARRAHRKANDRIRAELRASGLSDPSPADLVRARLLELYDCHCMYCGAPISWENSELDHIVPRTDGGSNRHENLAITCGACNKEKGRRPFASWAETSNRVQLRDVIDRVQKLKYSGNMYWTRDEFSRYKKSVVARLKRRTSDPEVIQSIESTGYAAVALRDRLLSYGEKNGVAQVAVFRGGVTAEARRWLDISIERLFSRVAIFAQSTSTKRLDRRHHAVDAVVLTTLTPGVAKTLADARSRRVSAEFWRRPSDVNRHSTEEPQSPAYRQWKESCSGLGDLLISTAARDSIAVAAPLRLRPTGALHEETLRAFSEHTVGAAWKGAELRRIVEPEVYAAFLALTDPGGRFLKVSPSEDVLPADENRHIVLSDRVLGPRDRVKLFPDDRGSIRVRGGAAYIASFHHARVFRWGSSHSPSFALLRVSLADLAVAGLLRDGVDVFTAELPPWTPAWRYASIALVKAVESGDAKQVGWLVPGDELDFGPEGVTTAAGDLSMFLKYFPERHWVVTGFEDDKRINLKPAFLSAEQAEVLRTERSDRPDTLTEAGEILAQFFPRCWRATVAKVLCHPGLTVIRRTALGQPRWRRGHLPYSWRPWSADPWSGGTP
Description: cleavage_in_vitro; 50 C. The conditions noted are these: tags: C-terminal His6 (pET28b, E. coli Rosetta DE3); linear plasmid.

For the molecule sgRNA 22-nt spacer ; ccdB plasmid PAMWT, in data set [1] (E. coli ccdB selection), the activity was < 0.01 % survival.

With “sgRNA 26-nt spacer ; ccdB plasmid PAMC(4,5)T”, the activity in data set [1] ([28,29], NNNTT PAM) is < 0.001 % survival.

As to sgRNA 26-nt spacer ; ccdB plasmid PAMWT, in data set [1] (E. coli ccdB selection), the activity is 13.6 % survival.

B1: sgRNA 24-nt spacer (template bottom strand; RNA is reverse complement without promoter) ; pUC19 WT target, BamHI-linearized (ssRNA ; dsDNA)
RNA: GGUAGGAUGGCAAGAUCCUGGUAUGCUGGGGAGCCUGAAAAGGCUACCUAGCAAGACCCCUUCGUGGGGUCGCAUUCUUCACCCCCUCGCAGCAGCGAGGGGGUUC
DNA 1: GGTAGGATGGCAAGATCCTGGTATACACC
DNA 2: GGTGTATACCAGGATCTTGCCATCCTACC
B1 had an activity in the data set with AceCas9 (Type II-C Cas9) of 0.53 min⁻¹.
